Source: the Immune Epitope Database (IEDB)

Experiments:
HLA-B*07:02 [1] = assay: IEDB peptide-MHC binding, purified MHC/competitive/fluorescence; filed as Kd, often an IC50 or EC50 that approximates it; ≥ and ≤ were set here for values at or beyond the usual limits of such assays; details: source organism: Influenza A virus
HLA-C*05:01 = assay: IEDB peptide-MHC binding, purified MHC/direct/fluorescence; filed as Kd, often an IC50 or EC50 that approximates it; ≥ and ≤ were set here for values at or beyond the usual limits of such assays
HLA-B*57:01 [2] = assay: IEDB peptide-MHC binding, purified MHC/competitive/radioactivity; filed as Kd, often an IC50 or EC50 that approximates it; ≥ and ≤ were set here for values at or beyond the usual limits of such assays
HLA-B*58:01 [3] = assay: as above
HLA-A*32:01 = assay: as above; details: source organism: Dengue virus 3 Martinique/1243/1999
HLA-B*51:01 = assay: IEDB peptide-MHC binding, purified MHC/competitive/fluorescence; filed as Kd, often an IC50 or EC50 that approximates it; ≥ and ≤ were set here for values at or beyond the usual limits of such assays
HLA-B*57:01 [4] = assay: as above; details: source organism: Reston ebolavirus - Reston (1989)
HLA-B*39:01 = assay: as above; details: source organism: Reston ebolavirus - Reston (1989)
HLA-B*46:01 = assay: as above; details: source organism: Reston ebolavirus - Reston (1989)
HLA-B*15:17 = assay: as above; details: source organism: Reston ebolavirus - Reston (1989)
HLA-A*02:01 [5] = assay: as above
HLA-B*15:01 = assay: as above; details: source organism: Reston ebolavirus - Reston (1989)
HLA-B*27:03 = assay: as above; details: source organism: Reston ebolavirus - Reston (1989)
HLA-A*26:01 = assay: as above; details: source organism: Reston ebolavirus - Reston (1989)
HLA-B*18:01 = assay: as above; details: source organism: Reston ebolavirus - Reston (1989)
HLA-A*01:01 = assay: IEDB peptide-MHC binding, purified MHC/direct/fluorescence; filed as Kd, often an IC50 or EC50 that approximates it; ≥ and ≤ were set here for values at or beyond the usual limits of such assays; details: source organism: Reston ebolavirus - Reston
HLA-A*02:01 [6] = assay: IEDB peptide-MHC binding, purified MHC/competitive/radioactivity; ≥ and ≤ were set here for values at or beyond the usual limits of such assays
HLA-A*03:01 = assay: IEDB peptide-MHC binding, purified MHC/competitive/fluorescence; ≥ and ≤ were set here for values at or beyond the usual limits of such assays
HLA-A*24:02 = assay: as above; details: source organism: Vaccinia virus Copenhagen
HLA-B*07:02 [7] = assay: as above
HLA-A*31:01 = assay: IEDB peptide-MHC binding, purified MHC/competitive/radioactivity; filed as Kd, often an IC50 or EC50 that approximates it; ≥ and ≤ were set here for values at or beyond the usual limits of such assays; details: source organism: Dengue virus 3 Martinique/1243/1999
HLA-B*58:01 [8] = assay: IEDB peptide-MHC binding, purified MHC/competitive/fluorescence; filed as Kd, often an IC50 or EC50 that approximates it; ≥ and ≤ were set here for values at or beyond the usual limits of such assays; details: source organism: Escherichia coli
HLA-B*40:01 = assay: as above
HLA-A*24:03 = assay: IEDB peptide-MHC binding, purified MHC/direct/fluorescence; filed as Kd, often an IC50 or EC50 that approximates it; ≥ and ≤ were set here for values at or beyond the usual limits of such assays
HLA-A*23:01 = assay: as above
HLA-A*11:01 = assay: IEDB peptide-MHC binding, purified MHC/competitive/fluorescence; ≥ and ≤ were set here for values at or beyond the usual limits of such assays; details: source organism: Vaccinia virus
[9] = source organism: Dengue virus 3 Martinique/1243/1999
[10] = source organism: Dengue virus 1 Singapore/S275/1990
[11] = source organism: Reston ebolavirus - Reston (1989)
[12] = source organism: Vaccinia virus Copenhagen
[13] = source organism: Dengue virus 2 Jamaica/1409/1983
[14] = source organism: Escherichia coli
[15] = source organism: Burkholderia mallei ATCC 23344
[16] = source organism: Vibrio vulnificus CMCP6
[17] = source organism: Vaccinia virus

Sequence: VPRYAFAM
- Kd (HLA-B*07:02 [1]): ≤ 0.001 µM

Sequence: RAQDPPPEL
- Kd (HLA-C*05:01; source organism: Homo sapiens): 0.663 µM

Sequence: ATLLVWHTW
- Kd (HLA-B*57:01 [2]; [9]): 0.0021 µM
- Kd (HLA-B*58:01 [3]; [9]): 0.00169 µM
- Kd (HLA-A*32:01): 0.00268 µM

Sequence: LSAAIGKAW
- Kd (HLA-B*57:01 [2]; [10]): 0.0019 µM
- Kd (HLA-B*58:01 [3]; [10]): 0.00292 µM

Sequence: FSDLCNFLI
- Kd (HLA-B*51:01; [11]): ≥ 20 µM
- Kd (HLA-B*57:01 [4]): ≥ 20 µM
- Kd (HLA-B*39:01): ≥ 20 µM
- Kd (HLA-B*46:01): ≥ 20 µM
- Kd (HLA-B*15:17): ≥ 20 µM
- Kd (HLA-A*02:01 [5]; [11]): ≥ 20 µM
- Kd (HLA-B*15:01): ≥ 20 µM
- Kd (HLA-B*27:03): ≥ 20 µM
- Kd (HLA-A*26:01): ≥ 20 µM
- Kd (HLA-B*18:01): ≥ 20 µM
- Kd (HLA-C*05:01; [11]): 0.009 µM
- Kd (HLA-A*01:01): 0.153 µM

Sequence: SLYNAIATL
- IC50 (HLA-A*02:01 [6]; source organism: Human immunodeficiency virus 1): 0.036 µM

Sequence: IVFYRSGTE
- IC50 (HLA-A*03:01; [12]): ≥ 85.9 µM
- IC50 (HLA-A*24:02): ≥ 6580 µM
- IC50 (HLA-B*07:02 [7]; [12]): ≥ 223 µM

Sequence: AIMEKNIML
- IC50 (HLA-A*02:01 [6]; source organism: Influenza A virus (A/Alaska/6/1977(H3N2))): 0.104 µM

Sequence: AASAAQRRGR
- Kd (HLA-B*58:01 [3]; [9]): 0.0187 µM
- Kd (HLA-A*31:01): 0.165 µM

Sequence: QSSITEAELT
- Kd (HLA-B*57:01 [2]; [13]): 0.351 µM
- Kd (HLA-B*58:01 [3]; [13]): 0.436 µM

Sequence: RAMACSALI
- Kd (HLA-B*51:01; [14]): 2.97 µM
- Kd (HLA-B*58:01 [8]): 0.0129 µM
- Kd (HLA-A*02:01 [5]; [14]): 0.0261 µM
- Kd (HLA-C*05:01; [14]): 0.347 µM

Sequence: MEIKILHKQ
- Kd (HLA-B*40:01; source organism: Escherichia coli 536): ≥ 20 µM

Sequence: PFFFGFSHF
- Kd (HLA-A*24:03; [15]): 0.704 µM
- Kd (HLA-A*23:01; [15]): 0.024 µM

Sequence: TLIDVCPI
- IC50 (HLA-A*02:01 [6]; source organism: Human papillomavirus 16): 0.033 µM

Sequence: TVILGVLLL
- IC50 (HLA-A*02:01 [6]; source organism: Homo sapiens): 0.847 µM

Sequence: IPSATKRWG
- IC50 (HLA-B*07:02 [7]; source organism: Sudan ebolavirus): 49.6 µM

Sequence: MFVSNRWFL
- Kd (HLA-A*24:03; [16]): 0.005 µM
- Kd (HLA-A*23:01; [16]): 0.002 µM

Sequence: MENLMYALL
- Kd (HLA-B*40:01; source organism: Bacillus anthracis str. A0488): 0.0284 µM

Sequence: NPIVPSFDM
- IC50 (HLA-B*07:02 [7]; source organism: Influenza A virus (A/Oklahoma/309/2006(H3N2))): 1.23 µM

Sequence: LVRSETKQK
- IC50 (HLA-A*03:01; [17]): 5.02 µM
- IC50 (HLA-B*07:02 [7]; [17]): 34.6 µM
- IC50 (HLA-A*11:01): 7.02 µM
